Experimental data from publication PMC3983052.

Target: AaSR-C-Full (full-length A. aegypti scavenger receptor-C with its trans-membrane region, 23-494 aa) (Aedes aegypti)
Assay: flow cytometry on cells

## purified inactivated DENV-2 virions (complex)
  percent of AaSR-C-expressing cells bound by DENV-2 virions: > 90%
